In general, Kd refers to a measure of binding affinity in units of concentration. A high value points to weaker binding.

From patent US20200024358A1 (published 2020) come the findings set out here.

The target in experiment [1] is T1, recombinant human CD3 epsilon His-tag protein (Novoprotein, Cat. No. C578) (human, UniProt P07766 23-126).
T1 construct: Bought protein; not shown: His-tag
In words: dual-binding ELISA: BCMA Fc coated, then CD3 epsilon His, anti-His detection. Background: An ELISA detects its analyte on a solid surface through an enzyme-linked reagent.

The target of experiment [2] is T2, recombinant Human BCMA Fc Chimera (produced in-house via transient expression in HEK293-6E cells) (human, UniProt Q02223 1-54).
T2 construct: not shown: Fc part of the chimera
T2 sequence (looked up): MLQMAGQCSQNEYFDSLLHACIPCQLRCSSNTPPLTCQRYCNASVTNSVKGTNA
The description is as above.

For experiment [3], the target named is T3, recombinant human PD-L1 His-tag protein (expressed after transient transfection in HEK293-6E) (human, UniProt Q9NZQ7 19-238, limits assumed).
T3 construct: not shown: His-tag
In words: dual-binding ELISA: BCMA Fc coated, then PD-L1 His, anti-His detection.

Experiment [4] concerns the target T2, recombinant Human BCMA Fc Chimera …. The experiment in a line: dual-binding ELISA: BCMA Fc coated, then CD3 epsilon His or PD-L1 His, anti-His detection.
Experimental: Trispecific antibody molecules were tested for their ability to bind the different targets using a Dual-Binding ELISA. […] Simultaneous binding to antigen pairs was detected via an anti-His antibody (Abcam, Cat. No. ab1187).
Experiment [5] concerns the target T4, extracellular domain of human PD-L1 (Example 8) (human, UniProt Q9NZQ7 19-238).
T4 construct: extracellular domain; also called PD-L1 antigen; immobilized PD-L1
In words: competition ELISA in solution (Friguet), Scatchard plot.
Experimental: First, mixtures of the trispecific antibody (Ab) at a fixed concentration and the PD-L1 antigen (Ag) at varying concentrations were incubated for sufficient time to reach equilibrium. Then the concentration of trispecific antibody, which remained unsaturated at equilibrium (not associated with PD-L1 antigen), was measured by a classical indirect ELISA using PD-L1 coated plates. […] The Kd was calculated from a Scatchard plot using the following equation:

T1 sequence (P07766 23-126): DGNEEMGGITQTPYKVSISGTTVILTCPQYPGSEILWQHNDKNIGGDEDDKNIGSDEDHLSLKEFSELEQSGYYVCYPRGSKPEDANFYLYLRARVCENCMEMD
T3 sequence (Q9NZQ7 19-238 limits assumed): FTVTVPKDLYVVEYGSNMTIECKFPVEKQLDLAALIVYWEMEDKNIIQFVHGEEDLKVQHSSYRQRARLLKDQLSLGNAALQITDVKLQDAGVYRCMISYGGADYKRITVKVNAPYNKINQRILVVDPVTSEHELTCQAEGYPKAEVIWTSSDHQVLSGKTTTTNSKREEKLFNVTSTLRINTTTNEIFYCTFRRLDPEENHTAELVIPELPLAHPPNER
T4 sequence (Q9NZQ7 19-238): as the sequence (Q9NZQ7 19-238 limits assumed) above

B1: CDR1-008 (bispecific antibody)
scFv: DIVLTQSPASLAMSLGKRATISCRASESVSVIGAHLIHWYQQKPGQPPKLLIYLASNLETGVPARFSGSGSGTDFTLTIDPVEEDDVAIYSCLQSRIFPRTFGGGTKLEIKGGGGSGGGGSGGGGSGGGGSQIQLVQSGPELKKPGETVKISCKASGYTFTDYSINWVKRAPGKGLKWMGWINTETREPAYAYDFRGRFAFSLETSASTAYLQINNLKYEDTATYFCALDYSYAMDYWGQGTSVTVSSGGGGSAVVTQEPSLTVSPGGTVTLTCGSSTGAVTTSNYANWVQQKPGKSPRGLIGGTNKRAPGVPARFSGSLLGGKAALTISGAQPEDEADYYCALWYSNHWVFGGGTKLTVLGGGGGSGGGGSGGGGSGGGGSEVQLVESGGGSVQPGGSLRLSCAASGFTFSTYAMNWVRQAPGKGLEWVGRIRSKANNYATYYADSVKGRFTISRDDSKNTLYLQMNSLRAEDTATYYCVRHGNFGDSYVSWFAYWGQGTTVTVSS
notes: also called bispecific tandem scFv BCMA/CD3; scFv BCMA/scFv CD3 BiTE
As for B1, the binding result in experiment [1] and in experiment [2] was “binds” each time.

B2: CDR1-056 (other)
chain: AVVTQEPSLTVSPGGTVTLTCGSSTGAVTTSNYANWVQQKPGKSPRGLIGGTNKRAPGVPARFSGSLLGGKAALTISGAQPEDEADYYCALWYSNHWVFGGGTKLTVLGGGGGSGGGGSGGGGSGGGGSEVQLVESGGGSVQPGGSLRLSCAASGFTFSTYAMNWVRQAPGKGLEWVGRIRSKANNYATYYADSVKGRFTISRDDSKNTLYLQMNSLRAEDTATYYCVRHGNFGDSYVSWFAYWGQGTTVTVSSGGGGSQVQLVESGGGLVQPGGSLRLSCAASGKMSSRRCMAWFRQAPGKGLERVAKLLTTSGSTYLADSVKGRFTISRDNSKNTVYLQMNSLRAEDTAVYYCAADSFEDPTCTLVTSSGAFQYWGQGTLVTVSSGGGGSQVQLVESGGGLVQPGGSLRLSCAASGFTLDYYAIGWFRQAPGKEREGVSCISRSDGSTYYADSVKGRFTISRDNAKNTVYLQMNSLKPEDTAVYYCAAAGADCSGYLRDYEFWGQGTLVTVSS
notes: Trispecific tandem scFv-sdAb-sdAb on one chain; also called CDR-056
Take B2: the binding result in experiment [1], in experiment [3] and in experiment [4] was “binds” each time.

B3: CDR1-011 (other)
heavy: QIQLVQSGPELKKPGETVKISCKASGYTFTDYSINWVKRAPGKGLKWMGWINTETREPAYAYDFRGRFAFSLETSASTAYLQINNLKYEDTATYFCALDYSYAMDYWGQGTSVTVSSASTKGPSVFPLAPSSKSTSGGTAALGCLVKDYFPEPVTVSWNSGALTSGVHTFPAVLQSSGLYSLSSVVTVPSSSLGTQTYICNVNHKPSNTKVDKRVEPKSCGGGGSEIVMTQSPSTLSASVGDRVIITCQASEDIASLLAWYQQKPGKAPKLLIYDASDLASGVPSRFSGSGSGAEFTLTISSLQPDDSATYYCQGNYGSSSSSSYGAVFGQGTKLTVLGGGGGSGGGGSGGGGSGGGGSEVQLVESGGGSVQPGGSLRLSCTVSGIDLSSYTMGWVRQAPGKGLEWVGIISSGGRTYYASWAKGRFTISRDTSKNTVYLQMNSLRAEDTATYYCARGRYTGYPYYFALWGQGTTVTVSS
light: DIVLTQSPASLAMSLGKRATISCRASESVSVIGAHLIHWYQQKPGQPPKLLIYLASNLETGVPARFSGSGSGTDFTLTIDPVEEDDVAIYSCLQSRIFPRTFGGGTKLEIKRTVAAPSVFIFPPSDEQLKSGTASVVCLLNNFYPREAKVQWKVDNALQSGNSQESVTEQDSKDSTYSLSSTLTLSKADYEKHKVYACEVTHQGLSSPVTKSFNRGECGGGGSAVVTQEPSLTVSPGGTVTLTCGSSTGAVTTSNYANWVQQKPGKSPRGLIGGTNKRAPGVPARFSGSLLGGKAALTISGAQPEDEADYYCALWYSNHWVFGGGTKLTVLGGGGGSGGGGSGGGGSGGGGSEVQLVESGGGSVQPGGSLRLSCAASGFTFSTYAMNWVRQAPGKGLEWVGRIRSKANNYATYYADSVKGRFTISRDDSKNTLYLQMNSLRAEDTATYYCVRHGNFGDSYVSWFAYWGQGTTVTVSS
notes: also called CDR1-0011
In the case of B3, binding in experiment [5] was characterised by a dissociation constant (Kd) of 5 nM.

B4: CDR1-005 (bispecific antibody)
heavy: QIQLVQSGPELKKPGETVKISCKASGYTFTDYSINWVKRAPGKGLKWMGWINTETREPAYAYDFRGRFAFSLETSASTAYLQINNLKYEDTATYFCALDYSYAMDYWGQGTSVTVSSASTKGPSVFPLAPSSKSTSGGTAALGCLVKDYFPEPVTVSWNSGALTSGVHTFPAVLQSSGLYSLSSVVTVPSSSLGTQTYICNVNHKPSNTKVDKRVEPKSC
light: B3 light
In the case of B4, the binding result in experiment [1] and in experiment [2] was “binds” each time.
